From patent US20250090676A1 (SUTRO BIOPHARMA, published 2025)

Key:
[1] = target: T1, human folate receptor alpha (hFOLR1) (human, UniProt P15328 25-234); assay: FACS, CHO-hFOLR1 cells;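 note: flow cytometry of serially diluted antibodies binding CHO cells stably expressing the receptor, 60 min on ice, mixed with dye-tagged parental CHO as background control, one-site specific fit with Hill slope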
T1 construct: endogenous on FOLR1-positive KB and Igrov1 cells (cell killing); also called human FolR1; FolRα
T1 sequence (P15328 25-234 limits assumed): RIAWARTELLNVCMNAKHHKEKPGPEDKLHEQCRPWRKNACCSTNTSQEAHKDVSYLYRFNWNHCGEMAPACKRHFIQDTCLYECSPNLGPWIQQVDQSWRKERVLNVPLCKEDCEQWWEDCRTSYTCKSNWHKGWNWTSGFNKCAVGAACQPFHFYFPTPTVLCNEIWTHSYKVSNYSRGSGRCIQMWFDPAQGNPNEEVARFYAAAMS
Protocol: (§1) CHO cells were transfected to stably express human (CHO-hFOLR1), cynomolgus (CHO-cFOLR1), or mouse (CHO-mFOLR1) target molecule FOLR1 on the cell surface. Parental CHO cells were used as a negative control to determine background binding levels. Parental CHO and stably transfected CHO-hFOLR1, CHO-cFOLR1, and CHO-mFOLR1 cells were cultured in Ham's F-12: high glucose DMEM (50:50) (Corning, Cellgro-Mediatech) supplemented with 10% heat-inactivated fetal bovine serum (Corning, Cellgro-Mediatech), 1% Penicillin/Streptomycin (Corning, Cellgro-Mediatech) and 2 mmol/L-glutamax (Life Technology).
(§2) A mixture of fluoresecent-labeled parental CHO cells and unlabeled CHO-hFOLRlcells were prepared as follows. Parental CHO cells were washed twice in PBS and incubated in PBS containing with 1 nM CellTrace™ Oregon Green488® (Life Technologies) at 37° C. for 30 minutes. Labeled parental CHO cells were then washed 2× with Ham's F-12 media and 2× with FACS buffer (PBS with 1% bovine serum albumin). Unlabeled CHO-hFOLR1 cells were similarly washed and prepared. Labeled parental CHO and unlabeled CHO-hFOLR1 cells were combined at 1:1 ratio and seeded at 50 μL per well (200,000 cells per well) in 96 well polypropylene plates. Cells were mixed with 50 μL of test antibodies (i.e., anti-FOLR1 variants) serially diluted in FACS buffer and incubated on ice for 60 mins. […] Data were analyzed using FlowJo® software (FlowJo, LLC; Ashland, OR) to determine mean fluorescence intensities. Binding constants were calculated using the statistical software, GraphPad Prism (GraphPad Software; La Jolla, CA) using the nonlinear regression equation, one site-specific binding with Hill slope. Secondary antibody alone was used as a control, in addition to measuring non-specific antibody binding to CHO parental cells.

[2] = target: T1, human folate receptor alpha (hFOLR1); assay: cell-based or functional assay
[3] = target: T2, murine folate receptor alpha (mouse, UniProt P35846 25-232); assay: FACS, CHO-mFOLR1 cells;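 note: flow cytometry binding of serially diluted test antibodies to transfected CHO cells on ice, mean fluorescence intensity, parental CHO cells give background, Kd from one-site specific binding fit with Hill slope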
T2 construct: Expressed on the surface of stably transfected CHO cells; also called mouse FolR1; CHO-mouse FolR1
T2 sequence (P35846 25-232 limits assumed): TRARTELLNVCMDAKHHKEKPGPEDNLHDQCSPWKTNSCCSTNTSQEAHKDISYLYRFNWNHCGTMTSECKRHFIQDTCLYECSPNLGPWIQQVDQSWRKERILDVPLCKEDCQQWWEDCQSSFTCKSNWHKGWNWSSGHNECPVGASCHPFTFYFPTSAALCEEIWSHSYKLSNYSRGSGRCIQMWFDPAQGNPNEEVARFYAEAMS
Protocol: as §1, §2

[4] = target: T3, cynomolgus monkey folate receptor alpha (cynomolgus monkey, UniProt P15328 25-234 (human entry)); assay: FACS, CHO-cFOLR1 cells
T3 construct: Expressed on the surface of stably transfected CHO cells; also called cyno FolR1; CHO-cyno FolR1
T3 sequence (P15328 other isoform, or with tags, fused parts or gaps limits assumed): as the sequence (P15328 25-234 limits assumed) above, with I2T, W4R, R37K, Q117R, A146P, H171Y counted along it
Protocol: as §1, §2

Row | Binder | Bmax (MFI) [1] [MFI] | Kd [1] [pM] | Igrov, 2° Antibody Cell Killing, Nb-SC239: EC50 [2] [pM] | Igrov, 2° Antibody Cell Killing, Nb-SC239: Span [2] [%] | KB, 2° Antibody Cell Killing, Nb-239: EC50 [2] [pM] | KB, 2° Antibody Cell Killing, Nb-239: Span [2] [%] | Bmax (MFI) [3] [MFI] | Kd [3] [pM] | Bmax (MFI) [4] [MFI] | Kd [4] [pM] | binding result [3]
1 | SRP1848-A02 (antibody, V domains shown, HC variant paired with trastuzumab LC, cell-free expressed, HIS- and FLAG-tagged; also called Antibody 2) VH: EVQLVESGGGLVQPGGSLRLSCAASGFNISGFRIHWVRQAPGKGLEWVAGIYPESGATYYADSVKGRFTISADTSKNTAYLQMNSLRAEDTAVYYCARHLYVWDWVLDHVLDYWGQGTLVTVSS VL: not shown | 24700 | 640 | 39 | 71 | 28 | 94 | 18600 | 2400 | 18500 | 500 | –
2 | SRP1848-F06 (antibody, V domains shown, HC variant paired with trastuzumab LC, cell-free expressed, HIS- and FLAG-tagged; also called Antibody 41) VH: EVQLVESGGGLVQPGGSLRLSCAASGFNISLSYIHWVRQAPGKGLEWVGGISPIDGNTDYADSVKGRFTISADTSKNTAYLQMNSLRAEDTAVYYCARGFWAWRSGYGYYLDYWGQGTLVTVSS VL: not shown | 25600 | 870 | 32 | 77 | 66 | 94 | – | – | 26500 | 860 | no binding
3 | SRP1848-G03 (antibody, V domains shown, HC variant paired with trastuzumab LC, cell-free expressed, HIS- and FLAG-tagged; also called Antibody 48) VH: EVQLVESGGGLVQPGGSLRLSCAASGFNISTYYIHWVRQAPGKGLEWVGGITPSDGFTDYADSVKGRSTISADTSKNTAYLQMNSLRAEDTAVYYCARGSWSWPSGHGYFLDYWGQGTLVTVSS VL: not shown | 26400 | 820 | 21 | 76 | 64 | 91 | 2220 | 2400 | 19200 | 440 | –
4 | SRP1848-G01 (antibody, V domains shown, HC variant paired with trastuzumab LC, cell-free expressed, HIS- and FLAG-tagged; also called Antibody 47) VH: EVQLVESGGGLVQPGGSLRLSCAASGFNISRHSIHWVRQAPGKGLEWVGWIAPNDGSTDYADSVKGRFTISADTSKNTAYLQMNSLRAEDTAVYYCARGSWAWRSGYSYFLDYWGQGTLVTVSS VL: not shown | 27400 | 980 | 22 | 66 | 70 | 91 | 1990 | 4600 | 20900 | 560 | –
5 | SRP1848-F07 (antibody, V domains shown, HC variant paired with trastuzumab LC, cell-free expressed, HIS- and FLAG-tagged; also called Antibody 42) VH: EVQLVESGGGLVQPGGSLRLSCAASGFNISNHSIHWVRQAPGKGLEWVGEIYPNDGITDYADSVKGRFTISADTSKNTAYLQMNSLSAEDTAVYYCARGSWDWRSGYSYYLDYWGQGTLVTVSS VL: not shown | 27400 | 580 | 18 | 71 | 57 | 92 | 1390 | 8800 | 18700 | 560 | –
6 | SRP1848-F08 (antibody, V domains shown, HC variant paired with trastuzumab LC, cell-free expressed, HIS- and FLAG-tagged; also called Antibody 43) VH: EVQLVESGGGLVQPGGSLRLSCAAGGFNISNHSIHWVRQAPGKGVEWVGEIYPVDGITDYADSVKGRFTISADTSKNTAYLRMNSLRAEDTAVYYCARGSWYWQSGYSYYLDYWGQGTLVTVSS VL: not shown | 26500 | 910 | 24 | 77 | 61 | 94 | – | – | 21000 | 1070 | no binding
7 | SRP1848-F11 (antibody, V domains shown, HC variant paired with trastuzumab LC, cell-free expressed, HIS- and FLAG-tagged; also called Antibody 46) VH: EVQLVESGGGLVQPGGSLRLSCAASGFNISNNYIHWVRQAPGKGLEWVGGITPIDGNTDYADSVKGRFTISADTSMNTAYLQMNSLRAEDTAVYYCARGSWYWRAGYGYYLDYWGQGALVTVSS VL: not shown | 26800 | 750 | 17 | 70 | 54 | 91 | 1760 | 4600 | 21800 | 470 | –
8 | SRP1848-F10 (antibody, V domains shown, HC variant paired with trastuzumab LC, cell-free expressed, HIS- and FLAG-tagged; also called Antibody 45) VH: EVQLVESGGGLVQPGGSLRLSCAASGFNISNNSIHWVRQAPGKGLEWVGSIFPNDGYTDYADSVKGRFTISADTSKNTAYLQMNSLRAEDTAVYYCARGSWFWRSGYGYYLDYWGQGTLVTVSS VL: not shown | 25600 | 360 | 9 | 68 | 38 | 94 | 1740 | 6900 | 20700 | 400 | –
9 | SRP1848-H01 (antibody, V domains shown, HC variant paired with trastuzumab LC, cell-free expressed, HIS- and FLAG-tagged; also called Antibody 55) VH: EVQLVESGGGLVQPGGSLRLSCAASGFNIRTQSIHWVRQAPGKGLEWIGDIFPIDGITDYADSVKGRFTISADTSKNTAYLQMNSLRAEDTAVYYCARGSWSWPSGMDYYLDYWGQGTLVTVSS VL: not shown | 27000 | 590 | 16 | 67 | 49 | 96 | 3950 | 33800 | 17200 | 280 | –
10 | SRP1848-F09 (antibody, V domains shown, HC variant paired with trastuzumab LC, cell-free expressed, HIS- and FLAG-tagged; also called Antibody 44) VH: EVQLVESGGGLVQPGGSLRLSCAASGFNISNHYIHWVRQAPGKGLEWVGGISPLDGYTDYADSVKGRFTISADTSKNTAYLQMNSLRAEDTAVYYCARGAWSWRSGYGYYIDYWGQGTLVTVSS VL: not shown | 23800 | 360 | 50 | 79 | 56 | 93 | 1670 | 90700 | 24200 | 750 | –
11 | SRP1848-D03 (antibody, V domains shown, HC variant paired with trastuzumab LC, cell-free expressed, HIS- and FLAG-tagged; also called Antibody 25) VH: EVQLVESGGGVVQPGGSLRLSCAASGFNIRYFSIHWVRQAPGKGLEWVGDIFPNDGSTDYADSVKGRFTISADTSKNTAYLQMNSLRAEETAVYYCARGHWSWPSGYWYYLDYWGQGTLVTVSS VL: not shown | 26000 | 1900 | 38 | 76 | – | 98 | 3170 | 9500 | 14100 | 580 | –
12 | SRP1848-G04 (antibody, V domains shown, HC variant paired with trastuzumab LC, cell-free expressed, HIS- and FLAG-tagged; also called Antibody 49) VH: EVQLVESGGGLVQPGGSLRLSCAASGFNIHSTDIHWVRQAPGKGLEWVAYITPAGGATFYADSVKGRFTISADTSKNTAYLQMNSLRAEDTAVYYCARYPYWFAGYMDYWGQGTLVTVSS VL: not shown | 25200 | 760 | 16 | 75 | 51 | 92 | 2000 | 2500 | 12500 | 250 | –
13 | SRP1848-G09 (antibody, V domains shown, HC variant paired with trastuzumab LC, cell-free expressed, HIS- and FLAG-tagged; also called Antibody 52) VH: EVQLVESGGGLVQPGGSLRLSCAASGFNIRGTDIHWVRQAPGKGLEWVAYITPAGGATFYADSVKGRFTISADTSKNTAYLQMNSLRAEDTAVYYCARHEYWFSGYMDYWGQGTLVTVSS VL: not shown | 25100 | 590 | 36 | 83 | 73 | 97 | 2180 | 6400 | 17700 | 350 | –
14 | SRP1848-G07 (antibody, V domains shown, HC variant paired with trastuzumab LC, cell-free expressed, HIS- and FLAG-tagged; also called Antibody 51) VH: EVQLVESGGGLVQPGGSLRLSCAASGFNIHSTDIHWVRQAPGKGLEWVAYITPAGGATWYADSVKGRFTISADTSKNTAYLQMNSLRAEDTAVYYCARYPFWFAGYMDYWGQGTLVTVSS VL: not shown | 24900 | 780 | 38 | 78 | 58 | 94 | 1980 | 2900 | 13700 | 350 | –
15 | SRP1848-G10 (antibody, V domains shown, HC variant paired with trastuzumab LC, cell-free expressed, HIS- and FLAG-tagged; also called Antibody 53) VH: EVQLVESGGGLVQPGSSLRLSCAASGFNIRSTDIHWVRQAPGKGLEWVAYITPAGGATYYADSVKGRFTISADTSKNTAYLQMNSLRAEDTAVYYCARYPYWFAGYIDYWGQGTLVTVSS VL: not shown | 25300 | 490 | 19 | 79 | 46 | 97 | 2890 | 4300 | 14200 | 240 | –
16 | SRP1848-G06 (antibody, V domains shown, HC variant paired with trastuzumab LC, cell-free expressed, HIS- and FLAG-tagged; also called Antibody 50) VH: EVQLVESGGGLVQPGGSLRLSCAASGFNIRSTDIHWVRQAPGKGLEWVAYITPAGGATYYADNVKGRFTISADTSKNTAYLQMNSLRAEDTAVYYCARQPYWFAGYMDYWGQGTLVTVSS VL: not shown | 25800 | 630 | 26 | 81 | 57 | 96 | 1860 | 11100 | 12800 | 310 | –
